# Experimental data as given in patent US20190256588A1 (BEIJING HANMI PHARM, published 2019).
# T1: recombinant human IL-17D (human, UniProt Q8TAD2 16-202, limits assumed)
# T1 sequence (looked up): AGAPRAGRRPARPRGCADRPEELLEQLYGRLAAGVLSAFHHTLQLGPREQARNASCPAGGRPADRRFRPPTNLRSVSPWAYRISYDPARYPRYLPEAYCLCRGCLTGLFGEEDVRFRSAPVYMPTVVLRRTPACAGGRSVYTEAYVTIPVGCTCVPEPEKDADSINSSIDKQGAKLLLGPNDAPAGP
# T2: recombinant human IL-17F (human, UniProt Q96PD4 31-163)
# T2 sequence (looked up): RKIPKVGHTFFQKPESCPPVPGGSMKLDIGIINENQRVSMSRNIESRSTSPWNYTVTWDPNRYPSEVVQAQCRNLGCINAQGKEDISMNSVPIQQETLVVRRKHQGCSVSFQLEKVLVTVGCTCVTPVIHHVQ
# T3: recombinant human IL-22 (human, UniProt Q9GZX6 34-179)
# T3 sequence (looked up): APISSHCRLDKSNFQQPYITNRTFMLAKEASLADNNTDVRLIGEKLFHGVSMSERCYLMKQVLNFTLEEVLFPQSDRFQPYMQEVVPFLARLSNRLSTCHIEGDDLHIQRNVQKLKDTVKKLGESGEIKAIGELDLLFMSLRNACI
# T4: recombinant human IFN-g (human, UniProt P01579 24-166, limits assumed)
# T4 sequence (looked up): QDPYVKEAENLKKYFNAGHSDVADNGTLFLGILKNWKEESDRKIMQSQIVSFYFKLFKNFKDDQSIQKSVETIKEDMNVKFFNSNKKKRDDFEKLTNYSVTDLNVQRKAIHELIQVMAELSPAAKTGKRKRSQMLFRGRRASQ
# T5: recombinant rat IL-17A (rat, UniProt Q61453 18-150, limits assumed)
# T5 sequence (looked up): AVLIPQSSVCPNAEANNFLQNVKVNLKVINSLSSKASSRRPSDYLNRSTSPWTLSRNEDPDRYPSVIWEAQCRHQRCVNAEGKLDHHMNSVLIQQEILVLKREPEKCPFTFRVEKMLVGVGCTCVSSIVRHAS
# T6: recombinant mouse IL-17A (mouse, UniProt Q62386 26-158, limits assumed)
# T6 sequence (looked up): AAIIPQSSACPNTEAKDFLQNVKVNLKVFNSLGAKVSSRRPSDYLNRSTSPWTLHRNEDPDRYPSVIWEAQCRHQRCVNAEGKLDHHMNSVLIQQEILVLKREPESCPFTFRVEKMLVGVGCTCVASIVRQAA
# How the values were obtained:
# recombinant human IL-17D = target: T1, recombinant human IL-17D; test: ELISA, cytokine coated on plate at 1 µg/mL
# Procedure: (§1) Recombinant human IL-17A, IL-17B, IL-17C, IL-17D, IL-17E, IL-17F, IL-1, IL-2, IL-6, IL-8, IL-21, IL-22, IL-23, IFN-g and TNFα (purchased from Sino Biological Inc. or R&D systems) were coated on a 96-well high-absorbing ELISA plate with a carbonate buffer solution with pH 9.6, the coating concentration was 1 μg/mL, the coating amount was 100 μL per well, and the coating was carried ax 4° C. out overnight. The plate was washed five times with PBST and blocked with 300 μL/well of PBST containing 1% BSA and incubated at 25° C. for 1 hour. The plate was washed five times with PBST. […] The plate was washed five times with PBST. Then, horseradish peroxidase-labeled anti-human IgG antibody (Chemicon, Catalog Number AP309P) 1:2000 diluted in PBST containing 1% BSA was added, 100 μL was added to each well, incubated at 25° C. for 1 hour. The plate was washed five times with PBST. 100 μL/well of colorimetric substrate TMB was added and incubated at room temperature for 10 minutes. Color development was terminated by adding 100 μL/well of 1 M H₂SO₄. The absorbance at 450 nm was read on a microplate reader.
# (§2) Recombinant human IL-17A, IL-17B, IL-17C, IL-17D, IL-17E, IL-17F, IL-1, IL-2, IL-6, IL-8, IL-21, IL-22, IL-23, IFN-g and TNFα (purchased from Sino Biological Inc. or R&D systems) were coated on a 96-well high-absorbing ELISA plate with a carbonate buffer solution with pH 9.6, the coating concentration was 1 μg/mL, the coating amount was 100 μL per well, and the coating was carried at 4° C. out overnight. Washed five times with PBST. Blocked with 300 μL/well of PBST containing 1% BSA and incubated at 25° C. for 1 hour. Washed five times with PBST.
# recombinant human IL-17F = target: T2, recombinant human IL-17F; test: ELISA, cytokine coated on plate at 1 µg/mL
# Procedure: as §1, §2
# recombinant human IL-22 = target: T3, recombinant human IL-22; test: ELISA, cytokine coated on plate at 1 µg/mL
# Procedure: as §1, §2
# recombinant human IFN-g = target: T4, recombinant human IFN-g; test: ELISA, cytokine coated on plate at 1 µg/mL
# Procedure: as §1, §2
# recombinant human IL-17A = target: T7, recombinant human IL-17A (human, UniProt Q16552 24-155); test: SPR, Biacore 3000, human IL-17A coupled to CM5 chip, antibody injected
# T7 construct: also called IL-17A antigen
# Procedure: The instrument utilizes an optical surface plasmon resonance technique to detect association and dissociation between a molecule coupled on a sensor chip and an analyte. CM5 chips (GE Healthcare, BR-1000-12) were used. Brief experiment procedure was as follow: human IL-17A was dissolved in sodium acetate buffer (pH 5.0) and coupled to CM chip by injecting at a speed of 10 μL/min. 1 M ethanolamine was injected at a speed of 10 μL/min for blocking. […] 10 mM glycine solution (pH 2.0) was used for regeneration. Association rate constants and dissociation rate constants were analyzed and calculated by Biacore 3000 control software.
# recombinant rat IL-17A = target: T5, recombinant rat IL-17A; test: ELISA, recombinant rat IL-17A coated on the plate, HRP anti-human IgG, OD450nm
# Procedure: (§3) Recombinant human IL-17A, monkey IL-17A, rat IL-17A and mouse IL-17A (all purchased from Sino Biological Inc.), were coated on a 96-well high-absorbing ELISA plate with a carbonate buffer solution with pH 9.6, the coating concentration was […], the coating amount was 100 μL per well, and the coating was carried out at 4° C. overnight. The plate was washed five times with PBST and blocked with 300 μL/well of PBST containing 1% BSA, and then incubated at 25° C. for 1 hour. The plate was washed five times with PBST. […] The plate was washed five times with PBST. Then, horseradish peroxidase-labeled anti-human IgG antibody (Chemicon, Catalog Number AP309P) 1:2000 diluted in PBST containing 1% BSA was added, 100 μL per well, incubated at 25° C. for 1 hour. The plate was washed five times with PBST. 100 μL/well of colorimetric substrate TMB was added and incubated at room temperature for 10 minutes. Color development was terminated by adding 100 μL/well of 1 M H₂SO₄. The absorbance at 450 nm was read on a microplate reader.
# recombinant mouse IL-17A = target: T6, recombinant mouse IL-17A; test: ELISA, recombinant mouse IL-17A coated on the plate, HRP anti-human IgG, OD450nm
# Procedure: as §3
# T7 sequence (Q16552 24-155 limits assumed): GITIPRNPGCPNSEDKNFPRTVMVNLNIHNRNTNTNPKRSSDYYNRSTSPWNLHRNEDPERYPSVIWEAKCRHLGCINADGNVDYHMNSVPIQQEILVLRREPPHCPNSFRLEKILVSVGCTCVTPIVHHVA
binder,measurement,setting,value
"anti-human IL-17A chimeric monoclonal antibody (antibody, human IgG1, kappa, V domains shown, expressed in 293F cells; also called Anti-human IL-17A Chimeric Antibody; chimeric anti-human IL-17A monoclonal antibody) VH: DVQVQESGPGLVKPSQSLSLTCTVTGNSITSYYAWNWIRQFPGNKLEWMGYITYSGTTSYNPSLKSRISITRDTSKNQFFLQLNSVTTEDTATYYCAREEYDDIYAVDYWGQGTSVTVSS VL: IIVMTQTPLSLPVSLGDQASISCRSSQSLVHSNGNTYLHWYLQKPGQSPKLLIYKVYNRFSGVPDRFSGSGSGTDFTLKISRVEAEDLGVYFCSQSTHFPTFGGGTKLEIKR",binding result,recombinant human IL-17D,no binding
same,binding result,recombinant human IL-17F,no binding
same,binding result,recombinant human IL-22,no binding
same,binding result,recombinant human IFN-g,no binding
same,Kd,recombinant human IL-17A,0.03 nM
same,koff,recombinant human IL-17A,1.49e-06 s⁻¹
same,kon,recombinant human IL-17A,54100 M⁻¹ s⁻¹
same,binding result,recombinant rat IL-17A,no binding (tested: about 20 nM)
same,binding result,recombinant mouse IL-17A,no binding (tested: about 20 nM)
